What all share (assay): cell-based or functional assay
One test addresses IL-21R (on B9 cells).
The target of test [1] is TGFβ1 (R&D systems) (UniProt P01137).
For test [2] the target is unchanged. The source holds these as a separate data set.
Test [3] concerns the target IL-2Rαβγ (on CTLL-2 cells).
The target of test [4] is IL-2Rβ and common γ chain (on 32Dβ cells).
The target is the same in test [5]. This is another data set of the same source.
Test [6] has the same target. This is another data set of the same source.

Read-outs that look alike come from different tables or passages of the source.

Four substances from patent US20230372399A1 can be followed below.

Sequence of TGFβ1 (R&D systems) (P01137 279-390 limits assumed): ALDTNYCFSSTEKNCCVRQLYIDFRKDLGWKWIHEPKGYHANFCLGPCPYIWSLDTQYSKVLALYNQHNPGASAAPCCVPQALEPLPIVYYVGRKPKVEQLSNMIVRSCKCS
Sequence of TGFR-Fc (R&D Systems) (P37173 24-159): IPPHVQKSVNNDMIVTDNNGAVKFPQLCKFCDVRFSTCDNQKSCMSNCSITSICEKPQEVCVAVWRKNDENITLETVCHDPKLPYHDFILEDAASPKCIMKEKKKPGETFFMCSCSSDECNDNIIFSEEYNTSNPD

In the test with IL-21R (on B9 cells), “recombinant IL-21 (from UniProt Q9HBE4 32-162) (ligand)” showed an EC50, B9 cell proliferation (WST-1) of 72.5 nM.

Turning to “TGFR-Fc (R&D Systems) (from UniProt P37173 24-159) (Fc fusion)”, the IC50, inhibition of TGFβ1 activity, HEK-Blue TGFβ reporter cells came out at 0.461 nM in the test with TGFβ1 (R&D systems) [1] and 0.559 nM with TGFβ1 (R&D systems) [2].

In the case of “recombinant IL-2 (from UniProt P60568 21-153) (ligand)”, the EC50, CTLL-2 cell proliferation (WST-1) in test [3] amounted to 0.548 nM.

“recombinant IL-15 (from UniProt P40933 49-162) (ligand)” had an EC50, CTLL2 cell proliferation (PrestoBlue) in test [3] of 0.00495 nM. The same substance returned an EC50, CTLL2 cell proliferation (WST-1) in test [3] of 0.00622 nM. The results for the EC50, 32Dβ cell proliferation (WST-1) in test [4], in test [5] and in test [6] were 0.0106 nM, 0.0166 nM and 0.0016 nM, respectively.
